# Measurements: IntAct's records for PubMed 23454120
# B1: Rho-related GTP-binding protein RhoD (Mus musculus), P97348 (parent)
# chain: MNASQVAGEEAPQSGHSVKVVLVGDGGCGKTSLMMVFAKGAFPESYSPTVFERYNATLQMKGKPVHLQIWDTAGQDDYDRLRPLFYPDANVLLLCFDVTNPNSFDNVSNRWYPEVTHFCKGVPIIVVGCKIDLRKDKVLVNNLRKKRLEPVTYHRGHDMARSVGAVAYLECSARLHDNVEAVFQEAAEVALSSRRHNFWRRITQNCCLAT
# Variants of: B1
# Conditions: with dapk3_human DAPK3, O43293
# Sequence of dapk3_human DAPK3, O43293 (O43293 whole entry, looked up): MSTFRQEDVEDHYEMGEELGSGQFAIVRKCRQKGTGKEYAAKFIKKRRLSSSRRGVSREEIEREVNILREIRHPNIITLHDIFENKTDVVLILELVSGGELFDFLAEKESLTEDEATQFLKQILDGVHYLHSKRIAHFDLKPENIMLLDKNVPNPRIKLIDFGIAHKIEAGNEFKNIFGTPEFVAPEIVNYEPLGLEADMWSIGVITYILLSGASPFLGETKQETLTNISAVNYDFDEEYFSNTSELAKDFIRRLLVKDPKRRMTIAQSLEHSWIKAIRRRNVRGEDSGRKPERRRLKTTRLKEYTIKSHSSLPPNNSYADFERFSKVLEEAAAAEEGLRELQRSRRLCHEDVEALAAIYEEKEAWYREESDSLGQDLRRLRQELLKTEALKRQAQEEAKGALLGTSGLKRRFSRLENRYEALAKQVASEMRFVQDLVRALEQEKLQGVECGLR
row,effect of a mutation on the interaction,Variant
1,disrupting interaction,T31N
